Assay results: patent US10464978B2, “Peptides and combination of peptides for use in immunotherapy against ovarian cancer and other cancers” (immatics biotechnologies GmbH, priority 2015, dated 2019)

The substances below were run against HLA-A*02:01 (Homo sapiens, UniProt P04439, D140Y/D185E/D98H/E176V/E277Q/G131W/G231S/I119V/I121R/I166T/I218V/L300P/L318F/N151K/N90K/P208A/P217A/Q86G/Q94H/R138H/R169H/T345S) (assay: MHC binding assay: UV-ligand exchange with beta2m ELISA (peptide exchange yield)). Conditions: binding to HLA-A*02:01.
Source text: Candidate peptides for T cell based therapies according to the present invention were further tested for their MHC binding capacity (affinity). The individual peptide-MHC complexes were produced by UV-ligand exchange, where a UV-sensitive peptide is cleaved upon UV-irradiation, and exchanged with the peptide of interest as analyzed. Only peptide candidates that can effectively bind and stabilize the peptide-receptive MHC molecules prevent dissociation of the MHC complexes. To determine the yield of the exchange reaction, an ELISA was performed based on the detection of the light chain ([…]) of stabilized MHC complexes. The assay was performed as generally described in Rodenko et al. (Rodenko et al., 2006).
96 well MAXISorp plates (NUNC) were coated over night with 2 ug/ml streptavidin in PBS at room temperature, washed 4× and blocked for 1 h at 37° C. in 2% BSA containing blocking buffer. […] Peptide-MHC monomers of the UV-exchange reaction were diluted 100 fold in blocking buffer. Samples were incubated for 1h at 37° C., washed four times, incubated with 2 ug/ml HRP conjugated anti-β2m for 1h at 37° C., washed again and detected with TMB solution that is stopped with […]. Absorption was measured at 450 nm. Candidate peptides that show a high exchange yield (preferably higher than 50%, most preferred higher than 75%) are generally preferred for a generation and production of antibodies or fragments thereof, and/or T cell receptors or fragments thereof, as they show sufficient avidity to the MHC molecules and prevent dissociation of the MHC complexes.

Substance | Peptide exchange (MHC class I binding score, peptide exchange yield)
67 (TLLAEALVTV; listed as Homo sapiens) [compound 67] | “+++” (≥50 = +++)
68 (SLMELPRGLFL; listed as Homo sapiens) [compound 68] | “++++” (≥75% = ++++)
69 (FQLDPSSGVLVTV; listed as Homo sapiens) [compound 69] | “+++” (≥50 = +++)
70 (GLLDYPVGV; listed as Homo sapiens) [compound 70] | “+++” (≥50 = +++)
71 (GILARIASV; listed as Homo sapiens) [compound 71] | “+++” (≥50 = +++)
72 (SLLELDGINL; listed as Homo sapiens) [compound 72] | “+++” (≥50 = +++)
73 (NIFDLQIYV; listed as Homo sapiens) [compound 73] | “+++” (≥50 = +++)
74 (ALLDPEVLSIFV; listed as Homo sapiens) [compound 74] | “+++” (≥50 = +++)
75 (GLLEVMVNL; listed as Homo sapiens) [compound 75] | “+++” (≥50 = +++)
76 (ILIDSIYKV; listed as Homo sapiens) [compound 76] | “+++” (≥50 = +++)
77 (ILVEADGAWVV; listed as Homo sapiens) [compound 77] | “++++” (≥75% = ++++)
78 (SLFSSLEPQIQPV; listed as Homo sapiens) [compound 78] | “+++” (≥50 = +++)
79 (SLFIGEKAVLL; listed as Homo sapiens) [compound 79] | “+++” (≥50 = +++)
80 (FLYDNLVESL; listed as Homo sapiens) [compound 80] | “++” (≥20% = ++)
81 (FLFSQLQYL; listed as Homo sapiens) [compound 81] | “++” (≥20% = ++)
82 (FLSSVTYNL; listed as Homo sapiens) [compound 82] | “+++” (≥50 = +++)
83 (ILAPTVMMI; listed as Homo sapiens) [compound 83] | “+++” (≥50 = +++)
84 (VTFGEKLLGV; listed as Homo sapiens) [compound 84] | “++” (≥20% = ++)
85 (KMSELRVTL; listed as Homo sapiens) [compound 85] | “+++” (≥50 = +++)
86 (NLIGKIENV; listed as Homo sapiens) [compound 86] | “+++” (≥50 = +++)
87 (ALPEAPAPLLPHIT; listed as Homo sapiens) [compound 87] | “++” (≥20% = ++)
88 (FLLVGDLMAV; listed as Homo sapiens) [compound 88] | “+++” (≥50 = +++)
89 (YILPTETIYV; listed as Homo sapiens) [compound 89] | “++++” (≥75% = ++++)
90 (TLLQIIETV; listed as Homo sapiens) [compound 90] | “+++” (≥50 = +++)
91 (IMQDFPAEIFL; listed as Homo sapiens) [compound 91] | “++++” (≥75% = ++++)
92 (YLIPFTGIVGL; listed as Homo sapiens) [compound 92] | “++” (≥20% = ++)
93 (LLQAIKLYL; listed as Homo sapiens) [compound 93] | “++” (≥20% = ++)
94 (YLIDIKTIAI; listed as Homo sapiens) [compound 94] | “++” (≥20% = ++)
95 (SVIPQIQKV; listed as Homo sapiens) [compound 95] | “+++” (≥50 = +++)
96 (YIFTDNPAAV; listed as Homo sapiens) [compound 96] | “+++” (≥50 = +++)

The remaining lines, values ahead:

Peptide exchange (MHC class I binding score, peptide exchange yield) | Substance
“+++” (≥50 = +++) | 97 (SLINGSFLV; listed as Homo sapiens) [compound 97]
“+++” (≥50 = +++) | 98 (LIIDQADIYL; listed as Homo sapiens) [compound 98]
“++” (≥20% = ++) | 99 (ALVSKGLATV; listed as Homo sapiens) [compound 99]
“++++” (≥75% = ++++) | 100 (YLLSTNAQL; listed as Homo sapiens) [compound 100]
“+++” (≥50 = +++) | 101 (ILVGGGALATV; listed as Homo sapiens) [compound 101]
“+++” (≥50 = +++) | 102 (YLFESEGLVL; listed as Homo sapiens) [compound 102]
“+++” (≥50 = +++) | 103 (TLAEEVVAL; listed as Homo sapiens) [compound 103]
“++++” (≥75% = ++++) | 104 (STMEQNFLL; listed as Homo sapiens) [compound 104]
“+++” (≥50 = +++) | 106 (LLYDAVHIVSV; listed as Homo sapiens) [compound 106]
“+++” (≥50 = +++) | 107 (FLQPVDDTQHL; listed as Homo sapiens) [compound 107]
“++++” (≥75% = ++++) | 108 (ALFPGVALLLA; listed as Homo sapiens) [compound 108]
“++++” (≥75% = ++++) | 109 (IILSILEQA; listed as Homo sapiens) [compound 109]
“+++” (≥50 = +++) | 110 (FLSQVDFEL; listed as Homo sapiens) [compound 110]
“+++” (≥50 = +++) | 111 (YVWGFYPAEV; listed as Homo sapiens) [compound 111]
“+++” (≥50 = +++) | 113 (GLLPTPLFGV; listed as Homo sapiens) [compound 113]
“++” (≥20% = ++) | 114 (SLVGEPILQNV; listed as Homo sapiens) [compound 114]
“++” (≥20% = ++) | 115 (AIAGAGILYGV; listed as Homo sapiens) [compound 115]
“+” (≥10% = +) | 116 (YHIDEEVGF; listed as Homo sapiens) [compound 116]
“+++” (≥50 = +++) | 117 (ILPDGEDFLAV; listed as Homo sapiens) [compound 117]
“+++” (≥50 = +++) | 118 (KLIDNNINV; listed as Homo sapiens) [compound 118]
